Measured values as given in the supplement of paper PMC10567573.

B1: ZNF232 (parent)
chain: HSGEKPFICKECGKAYGWCSELIR

Variants of: B1
Test: protein stability index of a GFP-peptide fusion (GPS, HEK-293T) (PSI 1-6); higher = more stable
Settings: c terminus: a fixed tail appended
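Further: lentivirally expressed fusions sorted by FACS into six bins by GFP to DsRed ratio, PSI derived from sequencing read proportions per bin multiplied by bin number.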

Variant | protein stability index
A15V | 2.01
A15F | 1.92
A15Q | 2.11
A15G | 1.45
A15Y | 1.85
A15I | 2.34
A15C | 2.76
A15W | 1.75
A15N | 1.83
A15S | 2.14
A15R | 2.14
A15D | 1.69
A15K | 1.69
A15L | 1.49
A15M | 1.9
A15P | 2.29
A15T | 2.05
A15E | 1.81
A15H | 1.89
G17C | 3.39
G17T | 1.56
G17W | 2.2
G17R | 1.65
G17Q | 2.2

Variant | protein stability index
G17L | 1.82
G17S | 1.8
G17Y | 2.24
G17A | 1.84
G17D | 2.2
G17F | 1.97
G17N | 1.38
G17H | 2.09
G17E | 1.82
G17M | 2.2
G17V | 1.52
G17I | 2.51
G17P | 2.54
G17K | 1.6
K14V | 1.71
K14N | 1.67
K14I | 2.04
K14P | 1.53
K14T | 2.24
K14R | 1.61
K14S | 1.7
K14W | 2.68
K14M | 1.96
K14L | 1.44

Variant | protein stability index
K14Q | 1.87
K14Y | 1.98
I23A | 2.04
I23C | 3.64
I23D | 2.5
E21A | 2.27
E21C | 2.8
E21S | 1.21
E21M | 2.07
E21F | 1.92
E21V | 2.84
E21I | 2.07
E21Y | 2.12
E21P | 2.5
E21H | 3.87
E21R | 1.99
E21T | 2.3
E21N | 1.38
E21L | 2.2
E21W | 2.11
E21G | 2.18
E21Q | 2.31
E21K | 2.26
E21D | 1.86

Variant | protein stability index
S20M | 1.75
S20W | 1.77
S20A | 2.34
S20Y | 1.7
S20Q | 1.98
S20C | 2.96
S20H | 2.33
S20D | 1.72
S20P | 1.87
S20E | 2.07
S20T | 2.11
S20N | 2.1
S20L | 1.39
S20G | 1.96
S20F | 2.11
S20V | 2
S20R | 3.24
S20I | 2.17
S20K | 2.2
C19K | 2.08
C19T | 2.09
C19H | 1.82
C19F | 1.69
C19S | 2.83

Variant | protein stability index
C19L | 1.69
C19V | 1.68
C19G | 1.89
C19I | 1.89
C19E | 2.5
C19A | 2.06
C19R | 1.73
C19W | 1.37
C19M | 2.13
C19D | 1.94
C19N | 2.08
C19P | 2.03
C19Y | 1.54
C19Q | 2.39
L22Q | 1.65
L22V | 2.09
L22K | 1.96
L22A | 2.24
L22T | 1.72
L22G | 2
L22D | 2.3
L22S | 1.92
L22E | 2.11
L22H | 3.29

Variant | protein stability index
L22M | 2.08
L22I | 1.73
L22F | 1.94
L22Y | 2.18
L22P | 3.26
L22W | 1.67
L22C | 4.76
L22R | 2.08
L22N | 1.81
W18D | 2.67
W18V | 2.25
W18I | 2.46
W18Y | 1.79
W18M | 2.57
W18H | 2.28
W18P | 1.81
W18S | 2.67
W18L | 2.09
W18Q | 2.49
W18C | 2.18
W18A | 1.85
W18E | 2.95
W18T | 1.83
W18G | 2.43

Variant | protein stability index
W18K | 1.78
W18N | 2.03
W18F | 1.55
W18R | 1.9
Y16V | 1.54
Y16C | 2.5
Y16D | 2.16
Y16A | 1.58
Y16Q | 2.33
Y16F | 1.6
Y16W | 2.1
Y16M | 1.94
Y16I | 2.06
Y16K | 2.11
Y16T | 2.49
Y16L | 1.25
Y16G | 1.93
Y16E | 1.75
Y16R | 2.06
Y16S | 1.99
Y16N | 1.88
Y16H | 3.04
Y16P | 1.61
